Test results published in US20200339680A1 (Alector, published 2020).

Key:
[1] = molecular target: T1, mouse TMEM106B (mouse, UniProt Q80X71 2-275); test: FACS Neuro2a;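 further: flow cytometry of antibody binding to cells: hybridoma supernatant or purified antibody at 10 µg/ml, 1 h on ice, secondary detection, propidium iodide–positive dead cells gated out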
T1 construct: transiently expressed on HEK293 cells, or native on mouse Neuro2a cells; also called moTMEM106B; murine TMEM106B
Description: (§1) All cells were cultured in either T75 or T150 flasks. […] The enzyme was quenched by addition of fresh media, and the cells were then distributed into 96-well plates for FACS analysis.
(§2) FACS analysis was performed as follows. Each cell type was aliquoted in 96-well round bottom plates (2×10^5 cells per well), washed once with FACS buffer (PBS+2% FBS+1 mM EDTA), and incubated with 50 μL of hybridoma supernatant or purified antibody (10 μg/ml in FACS buffer) on ice for 1 hour. […] Following this secondary incubation, the cells were again washed 2× with ice-cold FACS buffer and resuspended in a final volume of 50 μL of FACS buffer+0.25 μl/well propidium iodide (Fisher Scientific #4BDB556463). Analysis was performed on a FACSCanto system (BD Biosciences) or iQue (Intellicyt), with sort gates drawn to exclude dead (i.e., propidium iodide positive) cells.

[2] = molecular target: T2, human TMEM106B (human, UniProt Q9NUM4 2-274); test: FACS HEK+huTMEM 1.0 ug/ml;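 further: binding of purified mouse IgG antibodies to HEK293 cells transiently expressing human TMEM106B, read by flow cytometry as median fluorescence intensity of live, propidium iodide-negative cells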
T2 construct: full-length, transiently expressed on HEK293 cells, or natively expressed on HeLa, U251 and A549 cells (the cell is named under assay); also the source of the Pepscan peptides; also called huTMEM106B; huTMEM
Description: (§3) Purified anti-TMEM106B antibodies were evaluated for their binding affinity to various TMEM106B-expressing cell lines including HEK293 transiently transfected with human/cyno/mouse TMEM106B, as well as HeLa cells and A549 cells. Antibodies tested for this experiment were mouse IgGs purified from hybridoma supernatant. Affinity binding to cells was determined as follows. Briefly, 1×10\hat{ }5 cells were aliquoted per well in 96-well round bottom plates and incubated with 50 μL of purified anti-TMEM106B antibody at various concentrations (10× dilutions starting at 10 μg/ml) in FACS buffer (PBS+2% FBS+1 mM EDTA). […] Sorting was performed on a iQue (Intellicyt), with sort gates drawn to exclude dead (propidium iodide+) cells. Binding data was analyzed using median fluorescent intensity (MFI) and graphed in Prism. Values presented are MFI.

[3] = molecular target: T3, GST Fusion human TMEM106B ECD (Truncated) (human); test: SPR array
T3 construct: also called GST-TMEM106B-truncated protein; GST-TMEM106B (truncated)
Description: (§4) Binding kinetic characterization of the purified antibodies was performed by Carterra using a proprietary array SPR instrument (MX-96) as follows. Briefly, antibodies were prepared by diluting to 5 μg/ml in 10 mM Acetate, pH 4.5 (Carterra), at 150 μL/well and then made an additional dilution at 1:10 from there by titrating 11 μL into 100 μL. […] The chip was activated with 18 mM EDC (Sigma Bioxtra) and 4.5 mM S—NHS (Thermo Fisher) diluted in 100 mM MES, pH 5.5, for 7 minutes, and then antibodies were coupled for 10 minutes at 45 μL/minute. After coupling, the chip was returned to the MX-96 and quenched for 7 minutes using 1 M Ethanolamine pH 8.5 (Carterra).
(§5) Printed antibodies were profiled for their ability to bind GST-TMEM106B (truncated) protein (described above). Briefly, GST-TMEM106B (truncated) antigen was diluted to 18 μg/ml (500 nM of 36 kDa fusion protein) by mixing 2.7 μL of 2.0 mg/ml antigen into 298 μL Running buffer (HBS-EP+, Teknova with 1 mg/ml BSA, Sigma), and titrated 50 μl into 200 μl for 5-fold serial dilutions. […] Duplicate measurements for each anti-TMEM106B antibody were taken to ensure reproducibility.

[4] = molecular target: T3, GST Fusion human TMEM106B ECD …; test: SPR array; SPR kinetics, Table 5, second of two listed runs
Description: as §4
Printed antibodies were profiled for their ability to bind GST-TMEM106B (truncated) protein (described above). Briefly, GST-TMEM106B (truncated) antigen was diluted to 18 μg/ml (500 nM of 36 kDa fusion protein) by mixing 2.7 μL of 2.0 mg/ml antigen into 298 μL Running buffer (HBS-EP+, Teknova with 1 mg/ml BSA, Sigma), and titrated 50 μl into 200 μl for 5-fold serial dilutions. In addition, binding to GST (Pierce) was assayed under the same conditions to determine the extent of any non-specific binding of the anti-TMEM106B antibodies to GST portion of the TMEM106B-GST fusion protein. Duplicate measurements for each anti-TMEM106B antibody were taken to ensure reproducibility.

[5] = molecular target: T2, human TMEM106B; test: FACS HEK+huTMEM 10 ug/ml;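 further: flow cytometric binding of purified mouse IgG antibodies to HEK293 cells transiently expressing human TMEM106B, read as median fluorescence intensity on live cells with propidium iodide-positive cells excluded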
Description: as §3

[6] = molecular target: T3, GST Fusion human TMEM106B ECD …; test: SPR array; SPR kinetics, Table 5, first of two listed runs
Description: as §4, §5

[7] = molecular target: T3, GST Fusion human TMEM106B ECD …; test: SPR array; SPR kinetics, Table 5, first of two listed runs; weak binder
Description: as §4, §5

[8] = molecular target: T2, human TMEM106B; test: FACS A549 10 ug/ml
[9] = molecular target: T2, human TMEM106B; test: FACS HEK+huTMEM 0.1 ug/ml;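 further: flow cytometry binding of purified mouse IgG antibodies to HEK293 cells transiently expressing TMEM106B, read as median fluorescence intensity on live cells (propidium iodide negative gating)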
Description: as §3

[10] = molecular target: T2, human TMEM106B; test: FACS U251
Description: as §1, §2

[11] = molecular target: T2, human TMEM106B; test: FACS HEK+huTMEM 0.1 ug/ml (2nd column so headed);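 further: flow cytometry binding of purified anti-TMEM106B mouse IgG to HEK293 cells transiently transfected with TMEM106B, read as median fluorescence intensity on live (propidium iodide-negative) cells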
[12] = molecular target: T3, GST Fusion human TMEM106B ECD …; test: SPR array; SPR kinetics, Table 5, first of two listed runs (KD 4.70E-07 M)
Description: as §4, §5

[13] = molecular target: T3, GST Fusion human TMEM106B ECD …; test: SPR array; SPR kinetics, Table 5, second of two listed runs (KD 2.90E-08 M)
Description: as §4, §5

[14] = molecular target: T2, human TMEM106B; test: FACS A549;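 further: flow cytometry of cells incubated on ice for 1 h with hybridoma supernatant or purified antibody at 10 µg/mL, dead propidium iodide-positive cells gated out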
Description: as §1, §2

[15] = molecular target: T2, human TMEM106B; test: FACS A549 1 ug/ml
Description: as §3

[16] = molecular target: T2, human TMEM106B; test: FACS HeLa

B1: TM-16 (antibody, V domains shown)
VH: EVQLQQSGAELVRPGASVKLSCTTSGFNIKDYYMHWVKQRTEQGLEWIGRIDPEDGETKYAPEFQGKATITSDTSSNTAFLQLSSLTSEDTAVYYCASSQPFTYWGQGTLVTVSA
VL: QIVLTQSPAIMSASPGEKLTMTCSASSSLNYMYWYQQKPGSSPRLLIYDTSNLASGVPVRFSGSGSGTSYSLTISRMEAEDGATYYCQQWTSFPPTFGAGTKLELK
- MFI [1]: 392 MFI
- MFI [2]: 2140 MFI
- Kd [3]: 29 nM
- koff [4]: 0.00095 s⁻¹
- MFI [5]: 5980 MFI
- koff [6]: 0.0031 s⁻¹
- Kd [7]: 470 nM
- MFI [8]: 557 MFI
- MFI [9]: 680 MFI
- MFI [10]: 292 MFI
- MFI [11]: 351 MFI
- kon [12]: 6500 M⁻¹ s⁻¹
- kon [13]: 33000 M⁻¹ s⁻¹
- MFI [14]: 605 MFI
- MFI [15]: 409 MFI
- MFI [16]: 548 MFI
